From patent publication US20020115596A1 (MERK, published 2002)
Non-standard residues stand in square brackets, D forms with d. Primed or numbered codes have the meaning given here. PEG(2)″ = polyethylene glycol containing substituent with 2 ethyleneoxy subunits; Hyp = O=C(O)[C@@H]1C[C@@H](O)CN1; Chg = N[C@H](C(=O)O)C1CCCCC1; ΔPro = O=C(O)[C@@H]1C=CCN1

Target: free prostate specific antigen (PSA) (human, UniProt P07288 25-261)
Test: cell-based or functional assay

Binder | Time to 50% Substrate Cleavage by PSA (Min); the cell gives the percent cleaved at 3 hours [% cleaved at 3 hours]
Ac-[ΔPro]AS[Chg]QSL-OH (SMILES CC(=O)N1CC=C[C@H]1C(=O)N[C@@H](C)C(=O)N[C@@H](CO)C(=O)N[C@H](C(=O)N[C@@H](CCC(N)=O)C(=O)N[C@@H](CO)C(=O)N[C@@H](CC(C)C)C(=O)O)C1CCCCC1) [Ac-(Dehydro-Pro)-ASChgQ-SL-acid] | 28
Ac-[Hyp][Chg]QSSSL-OH (SMILES CC(=O)N1C[C@H](O)C[C@H]1C(=O)N[C@H](C(=O)N[C@@H](CCC(N)=O)C(=O)N[C@@H](CO)C(=O)N[C@@H](CO)C(=O)N[C@@H](CO)C(=O)N[C@@H](CC(C)C)C(=O)O)C1CCCCC1) [Ac-(4-trans-L-Hyp)ChgQ-SSSL-acid] | 0
XASXQSX (N-terminal acetyl; 4-trans-L-Hyp (trans-4-hydroxy-L-proline) at position 1 (written X); Chg (cyclohexylglycine) at position 4 (written X); TIC (1,2,3,4-tetrahydro-3-isoquinoline carboxylic acid) at position 7 (written X); C-terminal free acid) [Ac-(4-trans-L-Hyp)ASChgQ-S(TIC)-acid] | 16
{PEG(2)″}-[Hyp]AS[Chg]QSL-OH [PEG(2)-(4-trans-L-Hyp)-ASChgQ-SL-acid] | 44
